Reference: the supplement of paper PMC10567573

B1: SOAT1 (parent)
chain: KSAAMLAVFAVSAVVHEYALAVCL
B2: FBXO3 (parent)
chain: GGFPIIRDQIFRYVHDPECVATTG

Variants of: B1
Assay: protein stability index of a GFP-peptide fusion (GPS, HEK-293T) (PSI 1-6); higher = more stable
Conditions: c terminus: a fixed tail appended
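Note: lentivirally expressed fusions sorted by FACS into six bins by GFP to DsRed ratio, PSI derived from sequencing read proportions per bin multiplied by bin number.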

Protein stability index, by site and new letter:
S2: M 2.99 | Y 3.58 | I 2.12 | E 3.57 | T 3.26 | C 2.54 | R 2.91 | P 2.97 | L 2.66 | N 2.09
A3: S 2.25 | D 2.23 | M 3.72 | H 3.8 | N 2.7 | I 3.19 | W 1.96 | T 2.06 | G 2.25 | Y 2.83 | K 2.88 | V 1.5 | Q 3.47 | P 3.72
K1: T 4.59 | G 4.12 | N 1.73 | C 1.84 | W 3.4 | A 3.09 | M 2.64 | H 2.28 | E 3.54 | R 3.37 | F 2.89 | S 5.65 | Q 3.7 | V 1.84 | D 4.34
A4: N 2.2 | H 3.89 | W 1.72 | K 2.98 | D 2.45 | Y 2.44 | G 2.92 | V 3.08 | L 1.85 | M 2.94 | I 1.5 | T 3.43
M5: A 2.63 | D 3.48 | F 2.22 | C 3.11 | G 3.1 | E 3.88 | N 2.5 | L 3.74

Variants of: B2
Assay: as above
Conditions: c terminus: a fixed tail appended

Protein stability index: each site, then its substitutions
P17: A 1.84 | G 2.11 | S 2.93 | M 2.1 | I 1.43 | C 1.83 | R 1.49 | D 2.91 | Y 1.64 | Q 1.97 | W 2.01 | H 1.83 | E 2.34 | K 2.47 | T 2.42 | N 2.61 | F 2.01 | V 1.46 | L 1.81
A21: V 1.36 | Q 2.05 | L 1.45 | S 1.93 | E 1.55 | C 1.39 | H 2.77 | N 1.5 | R 1.82 | P 1.86 | W 1.7 | G 2 | I 1.5 | Y 2.49 | F 1.64 | K 1.62 | M 2.42 | T 1.69 | D 1.06
G24: Y 1.99 | Q 2.78 | L 1.96 | N 2.31 | D 2.22 | T 2.49 | I 1.5 | W 1.61 | A 1.83 | P 1.82 | C 1.7 | H 2.25 | M 1.33 | V 1.69 | S 1.81 | E 2.22 | R 2.22 | K 1.96 | F 1.93
D16: R 1.5 | Y 2.26 | L 1.75 | H 1.46 | K 2.3 | N 1.8 | C 1.94 | E 2.56 | P 2.47 | G 1.93 | M 1.88 | I 2.06 | F 1.4 | W 2.72 | A 1.86 | S 2.2 | T 2.37 | V 2.05 | Q 2.25
T23: G 1.12 | Q 1.96 | F 2.25 | C 1.91 | K 2.03 | E 2.09 | I 1.89 | D 1.66 | S 1.59 | V 1.61 | R 1.64 | Y 1.61 | N 2.13 | L 1.57 | H 1.89 | M 1.73 | A 1.8 | P 1.71
T22: Q 1.76 | M 1.53 | N 2.61 | G 1.66 | E 2.28 | H 1.92 | A 1.74 | I 2.26 | S 1.63 | D 2.25 | W 1.84 | Y 1.88 | C 1.72 | L 1.83 | V 1.67 | P 2.23 | F 1.67 | R 2.56 | K 1.64
H15: D 2.41 | L 1.94 | Q 2.02 | N 1.84 | M 1.49 | G 1.78 | E 2.85 | F 1.85 | A 1.95 | P 2.27 | Y 1.74 | W 1.85 | K 2.05 | R 1.68 | C 1.97 | S 1.5 | T 2.28 | I 1.62 | V 2.58
Y13: D 3.85 | G 3.18 | N 3.58 | C 2.32 | W 2.18 | V 2.8 | L 2.51 | T 3.34 | P 3.84 | K 2.79 | R 3.22 | A 3.44 | Q 3.65 | H 2.28 | F 1.75 | E 3.96 | S 3.62 | M 2.88 | I 2.39
C19: E 2.47 | I 1.55 | H 1.57 | G 1.73 | M 2.31 | L 1.72 | A 1.6 | Y 1.81 | R 1.79 | T 2.09 | F 1.57 | K 1.78 | W 2.15 | P 1.94 | N 1.74 | S 1.9 | D 2.49 | Q 1.94 | V 2.08
E18: Y 2.52 | L 1.58 | D 1.68 | C 2.04 | K 2.38 | S 1.57 | M 1.79 | V 1.7 | N 1.8 | A 2.61 | Q 1.28 | F 1.88 | R 1.69 | T 1.98 | I 1.92 | P 2.1 | H 1.99 | W 1.38 | G 1.71
I10: Y 2.57 | R 2.17 | S 3.22 | W 1.74 | V 2.36 | Q 2.75 | T 2.54 | N 3.3 | P 2.6 | M 2.44
R12: G 3.12 | T 2.21 | H 2.69 | P 2.82 | K 2.67 | Y 1.64 | W 1.58 | Q 2.79 | F 1.92 | L 1.64 | I 2.63 | S 2.89 | M 1.35 | N 3.01 | D 3.21 | V 1.22 | A 2.3 | E 3.39 | C 1.75
V20: F 1.8 | P 2.23 | L 1.81 | A 2.24 | E 2.22 | Y 1.9 | T 1.68 | I 2.19 | M 1.79 | N 2.49 | D 1.45 | K 1.27 | H 2.01 | G 2.08 | C 2.84 | S 2.32 | Q 2.04 | R 1.63 | W 1.78
V14: A 2.12 | K 2.83 | N 2.92 | D 3.78 | R 2.94 | L 2.28 | G 2.78 | F 1.92 | T 2.5 | I 2.57 | Y 2.9 | Q 3.11 | E 3.51 | M 2.42 | S 2.74 | C 1.93 | P 3.32 | H 2.28 | W 1.94
F11: K 2.85 | A 3.59 | N 3.67 | L 3.02 | Y 2.76 | M 2.78 | P 3.38 | T 3.35 | V 3.18 | S 3.45 | H 4.01 | R 2.89 | W 1.9 | G 3.48 | Q 3.1 | E 3.58 | D 3.94 | C 2.92 | I 2.45
